Laboratory results from patent US20210130452A1 (Merck KGaA, published 2021).

T1: human IL-17C (human, UniProt Q9P0M4 19-197)
T1 construct: expressed in E. coli; also called hIL-17C
T1 sequence (looked up): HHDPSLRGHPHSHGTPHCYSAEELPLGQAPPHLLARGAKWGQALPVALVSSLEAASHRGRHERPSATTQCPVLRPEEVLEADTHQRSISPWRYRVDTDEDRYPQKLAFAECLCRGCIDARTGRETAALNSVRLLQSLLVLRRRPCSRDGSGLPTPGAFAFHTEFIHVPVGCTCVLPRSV

T2: human IL-17D (human, UniProt Q8TAD2 18-202, limits assumed)
T2 construct: expressed in E. coli; also called hIL-17D
T2 sequence (looked up): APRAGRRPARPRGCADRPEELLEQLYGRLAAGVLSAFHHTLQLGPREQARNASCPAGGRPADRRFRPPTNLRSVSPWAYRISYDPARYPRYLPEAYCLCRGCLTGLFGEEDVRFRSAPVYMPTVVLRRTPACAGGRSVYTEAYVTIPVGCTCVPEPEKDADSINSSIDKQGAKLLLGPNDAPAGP

T3: human IL-17E (human, UniProt Q9H293 33-177)
T3 construct: expressed in E. coli; also called hIL-17E
T3 sequence (looked up): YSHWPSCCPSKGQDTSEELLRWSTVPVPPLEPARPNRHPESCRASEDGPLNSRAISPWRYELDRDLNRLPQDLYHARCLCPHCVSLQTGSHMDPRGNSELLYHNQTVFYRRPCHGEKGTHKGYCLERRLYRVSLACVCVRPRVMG

T4: human IL-17B (human, UniProt Q9UHF5 21-180)
T4 construct: expressed in E. coli; also called hIL-17B
T4 sequence (looked up): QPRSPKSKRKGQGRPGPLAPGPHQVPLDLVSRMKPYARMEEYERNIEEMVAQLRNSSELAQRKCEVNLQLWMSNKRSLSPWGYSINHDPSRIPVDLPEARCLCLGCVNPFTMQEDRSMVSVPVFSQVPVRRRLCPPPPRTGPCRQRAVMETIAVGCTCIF

T5: mouse IL-17A (mouse, UniProt Q62386 26-158)
T5 sequence (looked up): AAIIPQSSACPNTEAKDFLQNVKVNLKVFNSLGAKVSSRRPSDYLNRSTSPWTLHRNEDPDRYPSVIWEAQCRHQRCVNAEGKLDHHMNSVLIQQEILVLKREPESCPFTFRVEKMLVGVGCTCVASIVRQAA

T6: rat IL-17A (rat, UniProt Q61453 18-150, limits assumed)
T6 construct: made in E. coli, bought
T6 sequence (looked up): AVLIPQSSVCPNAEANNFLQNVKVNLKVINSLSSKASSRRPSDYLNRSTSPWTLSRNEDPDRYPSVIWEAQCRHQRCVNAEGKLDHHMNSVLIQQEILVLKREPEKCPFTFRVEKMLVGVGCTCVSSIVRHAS

T7: mouse IL-17F (mouse, UniProt Q7TNI7 29-161)
T7 sequence (looked up): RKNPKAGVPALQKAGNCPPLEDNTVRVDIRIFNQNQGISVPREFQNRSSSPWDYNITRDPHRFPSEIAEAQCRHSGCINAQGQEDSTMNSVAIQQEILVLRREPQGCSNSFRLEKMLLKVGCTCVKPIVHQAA

T8: rat IL-17F (rat, UniProt Q5BJ95 29-161)
T8 sequence (looked up): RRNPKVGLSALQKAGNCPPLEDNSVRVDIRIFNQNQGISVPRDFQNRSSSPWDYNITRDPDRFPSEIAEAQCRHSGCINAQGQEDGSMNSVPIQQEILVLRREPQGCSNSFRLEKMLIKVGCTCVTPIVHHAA


How the values were obtained:
[1] = molecular target: T1, human IL-17C; test: SPR, cytokine on chip
Source text: (§1) Human IL-17B, IL-17C, IL-17D or IL-17E were all expressed in E. coli, and covalently bound to a CM sensor chip surface via amine coupling using EDC/NHS for activation and HCl for deactivation.
(§2) Next, binding buffer was sent over the chip at the same flow rate to allow spontaneous dissociation of bound Nanobody or antibody.

[2] = molecular target: T2, human IL-17D; test: SPR, cytokine on chip
Source text: as §1, §2

[3] = molecular target: T3, human IL-17E; test: SPR, cytokine on chip
Source text: as §1, §2

[4] = molecular target: T4, human IL-17B; test: SPR, cytokine on chip
Source text: as §1, §2

[5] = molecular target: T5, mouse IL-17A; test: binding ELISA
Procedure: (§3) Binding of a selected panel of anti-IL-17 Nanobodies to IL-17 of other species was assessed using a binding ELISA. […] HRP (horseradish peroxidase) conjugated anti-myc (Serotec, MCA 2200P) was used for detection using esTMB as substrate.

[6] = molecular target: T6, rat IL-17A; test: binding ELISA
Procedure: as §3

[7] = molecular target: T7, mouse IL-17F; test: binding ELISA
Procedure: as §3

[8] = molecular target: T8, rat IL-17F; test: binding ELISA
Procedure: as §3

Binder | binding result [1] | binding result [2] | binding result [3] | binding result [4] | binding result [5] | binding result [6] | binding result [7] | binding result [8]
04G01 (VHH, Class 2; also called IL17MS04G01; 04G1) VHH: EVQLVESGGGLVQAGGSQRLSCTASGTIVNIHVMGWYRQAPGKQRELVALIFSGGSADYADSVKGRFTISRDNAKNTVYLEMNSLKAEDTAVYYCAAEIGYYSGGTYYSSEAHWGQGTQVTVSS | no binding | no binding | no binding | no binding | no binding (tested: 250 nM) | no binding (tested: 250 nM) | – | –
01A01 (VHH, Class 4) VHH: EVQLVESGGGLVQAGGSLRLSCAASGFTFDDYDIGWFRQAPGKEREGVSCFTSSDGRTFYADSVKGRFTVSADNAKNTVYLQMNSLEPEDTAVYFCAAVNTFDESAYAAFACYDVVRWGQGTQVTVSS | no binding | no binding | no binding | no binding | no binding (tested: 250 nM) | no binding (tested: 250 nM) | no binding (tested: 250 nM) | no binding (tested: 250 nM)
11C08 (VHH, Class 4) VHH: EVQLVESGGGLVQAGGSLRLSCAASGVIFRLNAMGWYRAAPGKQRELVAIIVNGGSTNYADSVKGRFTISRDSAKNAVYLQMNSLKPEDTAVYYCYYNIPGDVYWGQGTQVTVSS | no binding | no binding | no binding | no binding | no binding (tested: 250 nM) | no binding (tested: 250 nM) | no binding (tested: 250 nM) | no binding (tested: 250 nM)
13B03 (VHH, Class 4; also called IL17MS13B03) VHH: EVQLVESGGGSVQAGDSLRLSCAASGRANSINWFGWFRQTPGKEREFVAGIRWSDAYTEYANSVKGRFTISRDNAKNTVDLQMDSLKPEDTAVYYCVLDLSTVRYWGQGTQVTVSS | no binding | no binding | no binding | no binding | no binding (tested: 250 nM) | no binding (tested: 250 nM) | no binding (tested: 250 nM) | no binding (tested: 250 nM)
13B05 (VHH, Class 4) VHH: EVQLVESGGRLVQAGGSLRLSCAASGRTFTSYPMGWFRQAPGKEREFVAAISMSGDDTAYTDFVRGRFTISRDDARNTVYLHMTSLKPEDTAVYYCAARTSYDGTYDYIDDYSYWGQGTQVTVSS | no binding | no binding | no binding | no binding | no binding (tested: 250 nM) | no binding (tested: 250 nM) | no binding (tested: 250 nM) | no binding (tested: 250 nM)
17C01 (VHH, Class 4) VHH: EVQLVESGGRLVQAGGSLRLPCAASGRTFTSYPMGWFRQAPGKEREFVAAISMSGDDAAYADFVRGRFTISRDDARNTVYLHMTSLKPEDTAVYYCAARTSYDGTYDYIDDYSYWGQGTQVTVSS | no binding | no binding | no binding | no binding | no binding (tested: 250 nM) | no binding (tested: 250 nM) | no binding (tested: 250 nM) | no binding (tested: 250 nM)
09G10 (VHH, Class 2) VHH: EVQLVESGGGLVQAGGSLRLSCAASDSVFTAKAVGWYRQPPGLQREWVAIITSGGKTNYADSSVKGRFTVSVDKVKNTVTLQMNSLKPEDTAVYYCYAQWMGRDYWGQGTQVTVSS | no binding | no binding | no binding | no binding | no binding (tested: 250 nM) | no binding (tested: 250 nM) | – | –
13E02 (VHH, Class 4; also called IL17MS13E02) VHH: EVQLVESGGGLVQAGGSLRLSCAASGRTYDAMGWLRQAPGKEREFVAAISGSGDDTYYADSVKGRFTISKDNAGITMYLQMNSLKPEDTAVYYCATRRGLYYVWDSNDYENWGQGTQVTVSS | no binding | no binding | no binding | no binding | no binding (tested: 250 nM) | no binding (tested: 250 nM) | no binding (tested: 250 nM) | no binding (tested: 250 nM)
11A06 (VHH, Class 2) VHH: EVQLVESGGGLVQPGESLRLSCKASGFSLDYYALGWFRQAPGKEREGISCITSSDASAYYTDSVKGRFTISRDNSKNTVYLQMNSLKTEDTAIYYCAAALLTCSSYYDAYTYWGQGTQVTVSS | no binding | no binding | no binding | no binding | no binding (tested: 250 nM) | no binding (tested: 250 nM) | – | –
03C07 (VHH, Class 2) VHH: EVQLVESGGGLVQAGGSLRLSCAASGFTFDDYAIGWFRQAPGKEREAVSCFSSSDGSIYYADSVKGRFTISSDNAKNTVYLQMNSLKPEDTAVYYCAGGGGSYYYTQLNYCYDMDYWGKGTQVTVSS | no binding | no binding | no binding | no binding | no binding (tested: 250 nM) | no binding (tested: 250 nM) | – | –
04B09 (VHH, Class 2; also called 04B9) VHH: EVQLVESGGGLVQPGGSLRLSCAASGFTLGYYAIGWFRQAPGKEREGVSCDSSSDGDTYYANSVKGRFTISTDNGKNTVYLQMNSLKPEDTAVYYCATCTDWNYDYWGQGTQVTVSS | no binding | no binding | no binding | no binding | no binding (tested: 250 nM) | no binding (tested: 250 nM) | – | –
